Results reported in publication PMC4445970 (Nature structural & molecular biology, 2015).

Biological target: the molecule itself
Experiment: cryo-EM structure

Row | Protein | binding result | stoichiometry N
1 | pyocin R2 sheath protein (natural protein) MSFFHGVTVTNVDIGARTIALPASSVIGLCDVFTPGAQASAKPNVPVLLTSKKDAAAAFGIGSSIYLACEAIYNRAQAVIVAVGVETAETPEAQASAVIGGISAAGERTGLQALLDGKSRFNAQPRLLVAPGHSAQQAVATAMDGLAEKLRAIAILDGPNSTDEAAVAYAKNFGSKRLFMVDPGVQVWDSATNAARNAPASAYAAGLFAWTDAEYGFWSSPSNKEIKGVTGTSRPVEFLDGDETCRANLLNNANIATIIRDDGYRLWGNRTLSSDSKWAFVTRVRTMDLVMDAILAGHKWAVDRGITKTYVKDVTEGLRAFMRDLKNQGAVINFEVYADPDLNSASQLAQGKVYWNIRFTDVPPAENPNFRVEVTDQWLTEVLDVA | binds | 
2 | pyocin R2 tube protein (natural protein) MIPQTLTNTNLFIDGVSFAGDVPSLTLPKLAVKTEQYRAGGMDAPVSIDMGLEAMEAKFSTNGARREALNFFGLADQSAFNGVFRGSFKGQKGASVPVVATLRGLLKEVDPGDWKAGEKAEFKYAVAVSYYKLEVDGREVYEIDPVNGVRAINGVDQLAGMRNDLGL |  | 6
